According to patent US20150368357A1:

What was measured:
[1] = target: HER2 (Human Epidermal Growth Factor Receptor 2) expressed on SK-BR-3 cells (human) (UniProt P04626); test: flow cytometry, SK-BR-3 cells; mAb 0.4 ng/ml as headed
[2] = target: HER2 (Human Epidermal Growth Factor Receptor 2) expressed on SK-BR-3 cells (human) (UniProt P04626); test: flow cytometry, SK-BR-3 cells; mAb 50 ng/ml as headed
[3] = target: HER2 (Human Epidermal Growth Factor Receptor 2) expressed on SK-BR-3 cells (human) (UniProt P04626); test: flow cytometry, SK-BR-3 cells; mAb 0.2 ng/ml as headed

- MFI [1]: 0 MFI
- MFI [2]: 16 MFI
- MFI [3]: 0 MFI
Substance: Anti-idiotypic FVIII (a chimeric anti-Factor VIII antibody produced by rat hybridoma YB2/0)
